T1: DCC
T1 construct: coated protein in the ELISA; also called DCC-His (R&D Systems)
T1 chain: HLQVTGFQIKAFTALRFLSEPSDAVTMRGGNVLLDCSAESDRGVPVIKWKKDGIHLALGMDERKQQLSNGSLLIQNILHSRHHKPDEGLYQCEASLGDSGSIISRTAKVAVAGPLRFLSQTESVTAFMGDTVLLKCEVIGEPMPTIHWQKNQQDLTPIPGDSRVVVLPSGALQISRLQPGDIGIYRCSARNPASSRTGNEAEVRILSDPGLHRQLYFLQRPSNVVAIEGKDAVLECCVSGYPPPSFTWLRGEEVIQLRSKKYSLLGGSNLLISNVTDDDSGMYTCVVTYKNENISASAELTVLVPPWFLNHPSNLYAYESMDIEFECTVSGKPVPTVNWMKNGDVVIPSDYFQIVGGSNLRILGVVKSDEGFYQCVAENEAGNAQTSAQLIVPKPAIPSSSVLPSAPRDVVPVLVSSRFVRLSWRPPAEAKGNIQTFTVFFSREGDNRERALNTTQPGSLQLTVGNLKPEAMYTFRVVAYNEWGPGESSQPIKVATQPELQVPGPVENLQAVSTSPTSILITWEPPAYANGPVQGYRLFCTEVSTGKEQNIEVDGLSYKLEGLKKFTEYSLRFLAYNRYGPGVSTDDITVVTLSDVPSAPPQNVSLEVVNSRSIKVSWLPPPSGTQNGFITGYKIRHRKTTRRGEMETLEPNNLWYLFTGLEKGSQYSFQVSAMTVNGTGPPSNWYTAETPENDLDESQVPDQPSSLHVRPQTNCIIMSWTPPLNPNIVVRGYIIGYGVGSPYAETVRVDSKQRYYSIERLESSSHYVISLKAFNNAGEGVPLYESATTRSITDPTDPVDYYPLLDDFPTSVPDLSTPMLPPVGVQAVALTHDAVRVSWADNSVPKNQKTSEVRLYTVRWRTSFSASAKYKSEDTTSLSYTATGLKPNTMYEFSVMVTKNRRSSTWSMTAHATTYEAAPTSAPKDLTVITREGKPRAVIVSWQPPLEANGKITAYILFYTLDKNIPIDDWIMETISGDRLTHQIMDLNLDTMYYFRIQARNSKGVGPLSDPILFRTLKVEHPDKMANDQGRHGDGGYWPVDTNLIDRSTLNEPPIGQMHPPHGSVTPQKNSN

T2: HHLA2 (B7-H7)
T2 construct: coated protein in the ELISA; also called HHLA2-Fc (R&D Systems)
T2 chain: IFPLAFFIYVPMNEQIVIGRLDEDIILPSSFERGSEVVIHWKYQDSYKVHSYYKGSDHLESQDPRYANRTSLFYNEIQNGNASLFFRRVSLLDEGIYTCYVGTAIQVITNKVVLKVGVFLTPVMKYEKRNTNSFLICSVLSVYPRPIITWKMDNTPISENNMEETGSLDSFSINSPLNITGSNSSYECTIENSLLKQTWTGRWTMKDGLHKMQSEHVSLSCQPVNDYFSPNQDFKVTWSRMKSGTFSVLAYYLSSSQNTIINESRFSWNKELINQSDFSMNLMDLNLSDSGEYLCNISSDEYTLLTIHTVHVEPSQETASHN

T3: SELL (L-Selectin)
T3 construct: coated protein in the ELISA; also called SELL-Fc-His (R&D Systems)
T3 chain: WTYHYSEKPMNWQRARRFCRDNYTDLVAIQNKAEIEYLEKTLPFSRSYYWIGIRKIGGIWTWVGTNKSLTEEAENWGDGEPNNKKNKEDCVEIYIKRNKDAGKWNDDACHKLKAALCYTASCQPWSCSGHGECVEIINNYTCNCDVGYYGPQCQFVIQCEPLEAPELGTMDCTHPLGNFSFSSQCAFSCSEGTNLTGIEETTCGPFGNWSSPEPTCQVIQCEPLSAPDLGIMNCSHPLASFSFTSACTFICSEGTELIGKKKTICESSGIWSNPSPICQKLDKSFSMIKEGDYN

T4: ANXA1
T4 construct: coated protein in the ELISA; also called ANXA1-His (R&D Systems)
T4 chain: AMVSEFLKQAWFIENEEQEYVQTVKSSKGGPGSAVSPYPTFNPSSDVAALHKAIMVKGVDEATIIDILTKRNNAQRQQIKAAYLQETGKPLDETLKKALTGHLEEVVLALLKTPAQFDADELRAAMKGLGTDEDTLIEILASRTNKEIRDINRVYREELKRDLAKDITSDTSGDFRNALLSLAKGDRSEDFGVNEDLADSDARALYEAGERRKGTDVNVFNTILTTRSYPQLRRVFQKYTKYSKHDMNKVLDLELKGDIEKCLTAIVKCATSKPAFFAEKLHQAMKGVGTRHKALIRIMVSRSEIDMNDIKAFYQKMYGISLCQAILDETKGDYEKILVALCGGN


Assays:
DCC = target: T1, DCC; test: ELISA on coated DCC-His
Description: (§1) Recombinant purified ECDs (50-150 ng) of each putative target protein were coated, incubated with 150 ng of the indicated primary antibody, and binding was detected using a peroxidase-conjugated anti-human Fab secondary antibody. Heatmap represents averages of technical triplicates. (8B) Target validation via siRNA knockdown. H929 cells were transfected with siRNA pools targeting the putative antibody targets ICAM1, CADM1, and PTPRG. Cells were then subjected to cognate IgG binding analysis via flow cytometry. (NT, non-targeting siRNA).
(§2) ELISA ELISA was conducted as described previously. Briefly, 50-150 ng of antigen was coated overnight in half-area 96-well plates at 4° C., blocked with 3% BSA at 37° C. for 1 h, and 150 ng of chimeric rabbit/human IgG1 was added, incubating for 2 h at 37° C. […] After incubating at 37° C. for 15 min-1 h (depending on intensity of controls), data were acquired using a SpectraMax M5 plate reader (Molecular Devices).

HHLA2 (B7-H7) [1] = target: T2, HHLA2 (B7-H7); test: ELISA on coated HHLA2-Fc
Description: as §1, §2

SELL (L-Selectin) = target: T3, SELL (L-Selectin); test: ELISA on coated SELL-Fc-His, 150 ng IgG1; None 0.096
Description: as §1, §2

ANXA1 = target: T4, ANXA1; test: ELISA on coated ANXA1-His
Description: as §1, §2

ICAM1-Fc (R&D Systems) = target: T5, ICAM1-Fc (R&D Systems) (human, UniProt P05362 28-480); test: ELISA on coated ICAM1-Fc, 150 ng IgG1; None 0.060
T5 construct: Bought; also called ICAM-1/CD54; not shown: Fc of the bought fusion protein
T5 sequence (P05362 28-480): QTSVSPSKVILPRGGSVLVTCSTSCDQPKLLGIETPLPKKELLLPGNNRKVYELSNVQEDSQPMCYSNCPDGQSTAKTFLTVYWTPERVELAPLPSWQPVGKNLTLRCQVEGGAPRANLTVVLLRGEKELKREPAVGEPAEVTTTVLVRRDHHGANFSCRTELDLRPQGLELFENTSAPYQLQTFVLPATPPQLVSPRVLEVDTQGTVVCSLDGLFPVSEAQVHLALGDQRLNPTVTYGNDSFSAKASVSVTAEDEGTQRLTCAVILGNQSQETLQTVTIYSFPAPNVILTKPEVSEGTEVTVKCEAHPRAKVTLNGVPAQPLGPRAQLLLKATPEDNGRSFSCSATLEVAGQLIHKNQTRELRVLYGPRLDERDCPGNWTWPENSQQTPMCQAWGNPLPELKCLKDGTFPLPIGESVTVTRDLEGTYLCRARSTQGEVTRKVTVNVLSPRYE
Description: as §1, §2

HHLA2 (B7-H7) [2] = target: T2, HHLA2 (B7-H7); test: ELISA on coated HHLA2-Fc, 150 ng IgG1; None 0.087
Description: as §1, §2

| Binder | ELISA Absorbance (405 nm-570 nm) (SELL (L-Selectin)) | ELISA Absorbance (405 nm-570 nm) (ICAM1-Fc (R&D Systems)) | ELISA Absorbance (405 nm-570 nm) (HHLA2 (B7-H7) [2]) | binding result (DCC) | binding result (HHLA2 (B7-H7) [1]) | binding result (ANXA1) |
| --- | --- | --- | --- | --- | --- | --- |
| HW-42 chimeric rabbit-human IgG1 LA/LA/PG (antibody, V domains shown, Fc-silenced (L234A/L235A/P329G) IgG1, lambda; Alexa Fluor 647-labeled in single-step flow cytometry; Cluster C-1) VH: QSVKESEGGLFKPADTLTLTCTVSGFSLSSNEISWVRQAPGEGLEYIGIIDTGGRAYYAVWARSRSTITRNTNLNTVTLKMTSLTAADTATYFCARGGVDTEWYAFSSWGPGTLVTVPS VL: SFVLTQPASVQVNLGQTVSLTCTADTLSRRYASWYQQKPGQAPVLLIFRDTSRPSGVPDRFSGSSSGDTATLTISGAQAGDEADYYCATSDGSGSNYQYVFGGGTQLTVTG | 0.103 | 0.082 | 0.097 | no binding (tested: 150 ng IgG1 per well) | no binding (tested: 150 ng IgG1 per well) | no binding (tested: 150 ng IgG1 per well) |
| HW-70 chimeric rabbit-human IgG1 LA/LA/PG (antibody, V domains shown, Fc-silenced (L234A/L235A/P329G) IgG1, lambda; Alexa Fluor 647-labeled in single-step flow cytometry; Cluster C-1) VH: QSLEESGGRLVTPGTPLTLTCTVSGFSLSSNAMSWVRQAPGKGLEWIGTIDGYGYTYYASWAKGRFTVSKTSTTVDLKITSPTTEDTATYFCAREIYLGSNFWGPGTLVTISS VL: SFVLTQPASVQVNLGQTVSLTCTADTLSRRYASWYQQKPGQAPVLLIYRDTSRPSGVPDRFSGSSSGNTATLTISGAQAGDEADYYCATADGSGSSYQFVFGGGTQLTVTG | 0.09 | 0.064 | 0.088 | no binding (tested: 150 ng IgG1 per well) | no binding (tested: 150 ng IgG1 per well) | no binding (tested: 150 ng IgG1 per well) |
| HW-17 chimeric rabbit-human IgG1 LA/LA/PG (antibody, V domains shown, Fc-silenced (L234A/L235A/P329G) IgG1, lambda; Alexa Fluor 647-labeled in single-step flow cytometry; Cluster C-1) VH: QSLGESRGRLVTPDETLTLTCTVSGIDLSSNAMSWVRQAPGEGLEWIGTINTGGRAYYASWAKGRFTISRTSTTVDLKMTSLTTEDTATYFCARERYSDGRAYDIWGPGTLVTISS VL: SFVLTQPASVQVNLGQTVSLTCTADTLSRRYASWYQQKPGQAPVLLIYTDSNRPSGIPDRFSGSSSGNTATLTISGAQAGDEADYYCATDDGSGSIYQYVFGGGTQLTVTG | 0.072 | 0.071 | 0.076 | no binding (tested: 150 ng IgG1 per well) | no binding (tested: 150 ng IgG1 per well) | no binding (tested: 150 ng IgG1 per well) |
| HW-28 chimeric rabbit-human IgG1 LA/LA/PG (antibody, V domains shown, Fc-silenced (L234A/L235A/P329G) IgG1, lambda; Alexa Fluor 647-labeled in single-step flow cytometry; Cluster C-45) VH: QKQLVESGGRLVTPGTPLTLTCTASGFSLSSNAMSWVRQAPGEGLQWIGTISSGGSTYYASWAKGRFTISKTSTTVTLKMTSLTTEDTATYFCARGADLHRLWGPGTLVTVSS VL: SFVLTQPASVQVNLGQTVSLTCTGKPLSRSFASWYQQKPGQAPVLVIYRDTSRPSGVPDRFSGSSSGNTATLTISGAQAGDEADYYCATSDGSGSSYQYVFGGGTQLTVTG |  | 0.085 | 0.122 |  |  |  |
| HW-25 chimeric rabbit-human IgG1 LA/LA/PG (antibody, V domains shown, Fc-silenced (L234A/L235A/P329G) IgG1, lambda; Alexa Fluor 647-labeled in single-step flow cytometry; Cluster C-1) VH: QSLEESGGRLVTPGTPLTLTCTVSGFSLSSYAMGWVRQAPGKGLEWIGIIDSRGSTYYATWAKGRFTISKTSTTVDLKITSPTTEDTATYFCAREDSYYYDSFNLWGPGTLVTVSS VL: SFVLTQPASVQVNLGQTVSLTCTADTLSRRYASWYQQKPGQAPVLLIYRDTSRPSGVPDRFSGSSSGNTATLTISGAQAGDEADYYCATSDGSGSSYQCVFGGGTQLTVTG | 0.067 | 0.054 | 0.066 | no binding (tested: 150 ng IgG1 per well) | no binding (tested: 150 ng IgG1 per well) | no binding (tested: 150 ng IgG1 per well) |

Further lines, with some results ahead:

| ELISA Absorbance (405 nm-570 nm) (SELL (L-Selectin)) | ELISA Absorbance (405 nm-570 nm) (ICAM1-Fc (R&D Systems)) | ELISA Absorbance (405 nm-570 nm) (HHLA2 (B7-H7) [2]) | Binder | binding result (DCC) | binding result (HHLA2 (B7-H7) [1]) | binding result (ANXA1) |
| --- | --- | --- | --- | --- | --- | --- |
| 0.078 | 0.065 | 0.075 | HW-1 chimeric rabbit-human IgG1 LA/LA/PG (antibody, V domains shown, Fc-silenced (L234A/L235A/P329G) IgG1, lambda; Alexa Fluor 647-labeled in single-step flow cytometry; Prototype of cluster C-1) VH: QSLEESGGGLFKPTDTLTLTCTASGFSLGSSYAISWVRQAPGKELEWIGTIDSGRAYYARWAKSRSTITRNTNENTVTLKMTSLTAADTATYFCARDLIPTYSQDIWGPGTLVTISS VL: SFVLTQPASVQVNLGQTVSLTCTADTLSRRYASWYQQKPGQAPVLLIYRDTSRPSGVPDRFSGSSSGNTATLTISGAQAGDEADYYCATSDGSGNSYQYVFGGGTQLTVTS | no binding (tested: 150 ng IgG1 per well) | no binding (tested: 150 ng IgG1 per well) | no binding (tested: 150 ng IgG1 per well) |
| 0.177 | 0.055 | 0.092 | HW-16 chimeric rabbit-human IgG1 LA/LA/PG (antibody, V domains shown, Fc-silenced (L234A/L235A/P329G) IgG1, kappa; Alexa Fluor 647-labeled in single-step flow cytometry; Cluster C-45) VH: QSLEESGGRLVTPGTPLTLTCTASGFSLSSYAMSWVRQAPGKGLEWIGTMPTGGGTYYASWAKGRFTISKTSTTVDLQITSPTTEDTATYFCAKHWNIWGPGTLVTISS VL: DIVLTQTPSSTSTAVGDTVTINCRASQSIGRNLAWFQQKPGQPPKLLIYRASNLASGVPSRFKGSGSRTQFTLTISGVQREDAATYYCLGSYSSSDTAFGGGTELEILR |  | no binding (tested: 150 ng IgG1 per well) | no binding (tested: 150 ng IgG1 per well) |
| 0.081 | 0.077 | 0.086 | TH9-0022 (antibody, human IgG1, kappa, L234A L235A, V domains shown, also called TH9-022; negative control) VH: QSLEESGGRLVTPGTPLTLTCTVSGFSLSSYAMNWVRQAPGKGLEWIGIINSYGSTYYASWAKGRFTISKTSTTVDLKITSPTTEDTATYFCARVTYDSYGYGYAPYGMDLWGPGTLVTVSS VL: LVMTQTPSSTSNAVGGTVTIKCQASQSIGNVLAWYQQKPGQPPKLLIYAASTLASGVPSRVGGSRSGTEYTLTISGVQREDAATYYCLGSDSDSDIAFGGGTELEILR | no binding (tested: 150 ng IgG1 per well) | no binding (tested: 150 ng IgG1 per well) | no binding (tested: 150 ng IgG1 per well) |

Reference: US20260049134A1 (UNIVERSITY OF FLORIDA RESEARCH FOUNDATION, published 2026)
